One molecule from patent publication US20060088847A1 (TRUSTEES OF COLUMBIA UNIVERSITY IN THE CITY OF NEW YORK, published 2006) can be followed below.

For the experiment, the target named is in vitro translated 35S-labeled ARF-BP1 (1015-4374) (human, UniProt Q7Z6Z7 1015-4374, 35S-labeled (in vitro translation)). The experiment is described as follows: GST pull-down with 35S-labeled in vitro translated protein.

B1: GST-C-ARF, the C terminus of ARF (65-132) (other, UniProt Q8N726 65-132, looked up)
chain: GHDDGQRPSGGAAAAPRRGAQLRRPRHSHPTRARRCPGGLPGHAGGAAPGRGAAGRARCLGPSARGPG
notes: range 65-132; also called CARF-(65-132); not shown: glutathione S-transferase (GST) tag of the pGEX vector
For B1, the binding result is reported as “no binding”.
